Assay results reported in article PMC5667550 (SLAS discovery : advancing life sciences R & D, 2017).
Ends that are not written are not given here. * marks the point of attachment. Biotin = O=C1N[C@H]2[C@H](CS[C@H]2CCCCC(=O)*)N1

Molecular target: Klebsiella pneumonia PriA protein fused to an N-terminal 6xHis purification tag (Klebsiella pneumonia, UniProt A6TGC5 1-731)
Assay: AlphaScreen or HTRF

Klebsiella pneumonia PriA protein fused to an N-terminal 6xHis purification tag, sequence (A6TGC5 whole entry, the tested form may be a part): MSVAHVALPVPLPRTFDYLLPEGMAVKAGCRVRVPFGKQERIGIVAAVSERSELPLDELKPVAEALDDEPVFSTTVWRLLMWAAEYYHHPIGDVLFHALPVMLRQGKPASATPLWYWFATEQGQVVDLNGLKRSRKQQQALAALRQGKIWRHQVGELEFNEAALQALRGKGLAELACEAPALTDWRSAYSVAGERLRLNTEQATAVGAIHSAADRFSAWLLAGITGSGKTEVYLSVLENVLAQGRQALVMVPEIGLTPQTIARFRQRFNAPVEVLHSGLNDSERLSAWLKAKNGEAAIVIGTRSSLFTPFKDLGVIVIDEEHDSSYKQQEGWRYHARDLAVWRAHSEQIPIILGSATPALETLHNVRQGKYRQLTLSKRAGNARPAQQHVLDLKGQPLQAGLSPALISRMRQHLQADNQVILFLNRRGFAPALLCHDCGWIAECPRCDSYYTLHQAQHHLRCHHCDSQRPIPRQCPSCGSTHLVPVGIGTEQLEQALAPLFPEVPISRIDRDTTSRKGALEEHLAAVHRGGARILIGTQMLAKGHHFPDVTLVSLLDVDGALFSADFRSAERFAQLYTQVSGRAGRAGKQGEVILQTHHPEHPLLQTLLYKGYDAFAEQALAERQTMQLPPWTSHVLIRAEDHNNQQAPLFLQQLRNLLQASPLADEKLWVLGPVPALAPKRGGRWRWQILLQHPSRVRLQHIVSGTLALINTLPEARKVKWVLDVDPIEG

B1: N-terminally biotinylated SSBct (peptide)
peptide: Biotin-WMDFDDDIPF
Question: Does B1 bind?
Answer: Result: binds
